Source: IntAct's records for PubMed 21331046

B1: Oxysterols receptor LXR-beta (Homo sapiens), P55055 (parent)
chain: MSSPTTSSLDTPLPGNGPPQPGAPSSSPTVKEEGPEPWPGGPDPDVPGTDEASSACSTDWVIPDPEEEPERKRKKGPAPKMLGHELCRVCGDKASGFHYNVLSCEGCKGFFRRSVVRGGARRYACRGGGTCQMDAFMRRKCQQCRLRKCKEAGMREQCVLSEEQIRKKKIRKQQQESQSQSQSPVGPQGSSSSASGPGASPGGSEAGSQGSGEGEGVQLTAAQELMIQQLVAAQLQCNKRSFSDQPKVTPWPLGADPQSRDARQQRFAHFTELAIISVQEIVDFAKQVPGFLQLGREDQIALLKASTIEIMLLETARRYNHETECITFLKDFTYSKDDFHRAGLQVEFINPIFEFSRAMRRLGLDDAEYALLIAINIFSADRPNVQEPGRVEALQQPYVEALLSYTRIKRPQDQLRFPRMLMKLVSLRTLSSVHSEQVFALRLQDKKLPPLLSEIWDVHE
partner: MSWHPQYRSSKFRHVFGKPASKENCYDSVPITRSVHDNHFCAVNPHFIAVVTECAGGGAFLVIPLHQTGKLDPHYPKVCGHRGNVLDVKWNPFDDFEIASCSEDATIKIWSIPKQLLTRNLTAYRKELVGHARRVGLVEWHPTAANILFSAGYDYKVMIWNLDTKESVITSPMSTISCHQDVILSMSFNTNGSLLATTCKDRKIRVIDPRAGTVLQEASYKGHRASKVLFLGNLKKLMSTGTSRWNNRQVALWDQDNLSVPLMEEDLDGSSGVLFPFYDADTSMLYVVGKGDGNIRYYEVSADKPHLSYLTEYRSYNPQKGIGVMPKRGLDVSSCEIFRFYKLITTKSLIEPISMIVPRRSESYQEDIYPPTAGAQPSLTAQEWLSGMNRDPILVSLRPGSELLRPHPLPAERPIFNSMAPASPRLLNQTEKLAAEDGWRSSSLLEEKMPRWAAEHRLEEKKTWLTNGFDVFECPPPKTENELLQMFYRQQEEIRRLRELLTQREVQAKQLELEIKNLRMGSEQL
B2: Oxysterols receptor LXR-beta (Homo sapiens), P55055 (parent)
chain: B1 chain
partner: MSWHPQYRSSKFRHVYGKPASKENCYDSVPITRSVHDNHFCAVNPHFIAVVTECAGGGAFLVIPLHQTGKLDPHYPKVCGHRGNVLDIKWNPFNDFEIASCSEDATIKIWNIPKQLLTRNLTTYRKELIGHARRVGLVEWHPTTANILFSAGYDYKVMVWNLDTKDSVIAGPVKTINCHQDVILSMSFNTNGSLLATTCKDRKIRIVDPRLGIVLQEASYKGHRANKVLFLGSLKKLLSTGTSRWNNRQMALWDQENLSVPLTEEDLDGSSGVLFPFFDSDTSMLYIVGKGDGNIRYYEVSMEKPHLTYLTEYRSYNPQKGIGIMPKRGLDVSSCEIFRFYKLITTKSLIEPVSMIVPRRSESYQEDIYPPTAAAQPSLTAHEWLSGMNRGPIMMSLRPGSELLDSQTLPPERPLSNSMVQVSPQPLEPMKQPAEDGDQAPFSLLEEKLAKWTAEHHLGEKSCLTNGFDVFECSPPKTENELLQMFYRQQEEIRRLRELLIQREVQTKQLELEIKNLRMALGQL
B3: Oxysterols receptor LXR-beta (Homo sapiens), P55055 (parent)
chain: B1 chain

Variants of: B1
Conditions: with cor2a_human CORO2A

effect of a mutation on the interaction | Variant
disrupting interaction | K409R;K447R

Variants of: B2
Conditions: with cor2a_mouse Coro2a

effect of a mutation on the interaction | Variant
disrupting interaction | S426D

Variants of: B3
Conditions: with senp3_mouse Senp3, Q9EP97
Chain of senp3_mouse Senp3, Q9EP97 (Q9EP97 whole entry): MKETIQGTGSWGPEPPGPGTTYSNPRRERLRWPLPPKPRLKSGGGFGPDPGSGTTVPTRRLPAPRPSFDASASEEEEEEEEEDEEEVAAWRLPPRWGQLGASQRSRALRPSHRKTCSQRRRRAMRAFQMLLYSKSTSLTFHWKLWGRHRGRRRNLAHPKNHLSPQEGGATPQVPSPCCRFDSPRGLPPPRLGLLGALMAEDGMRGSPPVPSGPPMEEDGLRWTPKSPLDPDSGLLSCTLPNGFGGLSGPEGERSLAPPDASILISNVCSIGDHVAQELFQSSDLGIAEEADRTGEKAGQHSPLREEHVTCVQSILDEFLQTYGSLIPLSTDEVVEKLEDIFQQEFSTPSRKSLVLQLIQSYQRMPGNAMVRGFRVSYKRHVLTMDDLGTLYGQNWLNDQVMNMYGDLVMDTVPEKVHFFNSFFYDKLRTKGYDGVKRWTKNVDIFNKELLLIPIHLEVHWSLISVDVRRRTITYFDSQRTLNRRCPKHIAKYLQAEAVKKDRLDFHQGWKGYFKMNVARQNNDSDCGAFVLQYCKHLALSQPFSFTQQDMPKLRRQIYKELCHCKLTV

effect of a mutation on the interaction | Variant
disrupting interaction | S426A
